{
  "source": "patent US5981483A",
  "about": "“Compositions comprising modulators of cytokines of the TGF-β superfamily” (Mount Sinai Hospital Corporation, priority 1997, dated 1999)",
  "molecules": {"B1": {"name": "h-Fetuin: adult human fetuin/α2-HS glycoprotein (Calbiochem) (protein)", "chain": "APHGPGLIYRQPNCDDPETEEAALVAIDYINQNLPWGYKHTLNQIDEVKVWPQQPSGELFEIEIDTLETTCHVLDPTPVARCSVRQLKEHAVEGDCDFQLLKLDGKFSVVYAKCDSSPDSAEDVRKVCQDCPLLAPLNDTRVVHAAKAALAAFNAQNNGSNFQLEEISRAQLVPLPPSTYVEFTVSGTDCVAKEATEAAKCNLLAEKQYGFCKATLSEKLGGAEVAVTCMVFQTQPVSSQPQPEGANEAVPTPVVDPDAPPSPPLGAPGLPPAGSPPDSHVLLAAPPGHQLHRAHYDLRHTFMGVVSLGSPSGEVSHPRKTRTVVQPSVGAAAGPVVPPCPGRIRHFKV"}},
  "molecular_target": "T1, BMP-2 (Homo sapiens, UniProt P12643)",
  "T1 construct": "Genetics Institute, Cambridge, Mass; (gift)",
  "T1 sequence (P12643 283-396)": "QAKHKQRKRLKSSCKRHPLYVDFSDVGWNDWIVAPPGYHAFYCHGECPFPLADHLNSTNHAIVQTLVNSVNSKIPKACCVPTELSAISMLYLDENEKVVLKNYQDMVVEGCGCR",
  "assay": "BIAcore surface plasmon resonance, binding to immobilized BMP-2",
  "conditions": "Table 2 (calculations repeated); ligand BMP-2",
  "description": "In this system, a purified protein serving as the ligand is covalently coupled to a carboxymethylated dextran surface, and binding molecules (i.e. the analyte) are passed in a fluid phase across the surface. Binding of the analyte to ligand causes a change in reflected light which is directly proportional to mass bound, and is measured in arbitrary response units (R.U.). Analyte-ligand binding is observed as both increasing response with time during the injection of analyte, and the difference in the position of the baseline before and after injection.\nSchuster, R. V. Swanson, L. A. Alex, R. B. Bourret, M. I. Simon, Nature 365, 343 (1993). 1000 R.U. equals approximately 1 ng/mm^2. The running buffer was 20 mM Hepes (pH 7.2), 150 mM NaCl and the flow rate for all sensorgrams was 3 μl/min.\nRegeneration of the surface to remove bound analyte was done by injection of 10 μl of 20 mM NaOH. To cyclize TRH1 peptides, the material was reduced with 5 mM DTT then brought to a final concentration of 60 μM in 25 mM ammonium acetate (pH 8.5). […]\nData was analyzed using the BIA-evaluation software (Pharmacia Biosensor). The association rate constant, kass, was calculated by first plotting the change in response with time versus response (i.e. dR/dT vs R). […] The affinity constants were calculated from KD =kdiss /kass. […]",
  "data": [
    {"molecule": "B1", "values": [
      {"measurement": "kass", "result": "22000 ± 5000", "unit": "M⁻¹ s⁻¹"}
    ]}
  ]
}
